In article PMC12366701:

Key:
[1] = molecular target: porcine double-stabilized microtubules (dsMTs) (porcine (endogenous in pig brain)) (UniProt P02550); test: TIRF microscopy binding assay; porcine dsMTs attached to coverslips via an anti-β-tubulin antibody; 100 nM Janelia Fluor 549-labelled TTLL11 variants in 40 mM tris-HCl pH 7.0, 1 mM TCEP, 1 mM MgCl2, 5% glycerol, casein, 10 μM paclitaxel; 22°C; intensity per μm of MT normalized to the control
[2] = molecular target: AspN-treated porcine dsMTs (β-tubulin C-tail removed) (porcine (endogenous in pig brain)) (UniProt P02550); test: as above

Sequence of UniProt P02550 (P02550 whole entry, chain 1 of 2): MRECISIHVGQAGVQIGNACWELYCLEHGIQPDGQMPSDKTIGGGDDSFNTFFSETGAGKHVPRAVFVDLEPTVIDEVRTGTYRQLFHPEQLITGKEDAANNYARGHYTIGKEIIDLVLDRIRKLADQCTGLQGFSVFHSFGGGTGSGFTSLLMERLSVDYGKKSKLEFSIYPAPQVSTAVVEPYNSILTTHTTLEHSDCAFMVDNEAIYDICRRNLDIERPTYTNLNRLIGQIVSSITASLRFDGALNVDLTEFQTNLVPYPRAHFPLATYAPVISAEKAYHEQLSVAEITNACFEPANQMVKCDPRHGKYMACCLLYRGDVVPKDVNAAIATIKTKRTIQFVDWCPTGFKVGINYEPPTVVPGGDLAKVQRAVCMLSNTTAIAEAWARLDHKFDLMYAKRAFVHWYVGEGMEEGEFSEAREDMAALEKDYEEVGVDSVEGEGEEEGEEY
Sequence of UniProt P02550 (P02554 whole entry, chain 2 of 2, further chain): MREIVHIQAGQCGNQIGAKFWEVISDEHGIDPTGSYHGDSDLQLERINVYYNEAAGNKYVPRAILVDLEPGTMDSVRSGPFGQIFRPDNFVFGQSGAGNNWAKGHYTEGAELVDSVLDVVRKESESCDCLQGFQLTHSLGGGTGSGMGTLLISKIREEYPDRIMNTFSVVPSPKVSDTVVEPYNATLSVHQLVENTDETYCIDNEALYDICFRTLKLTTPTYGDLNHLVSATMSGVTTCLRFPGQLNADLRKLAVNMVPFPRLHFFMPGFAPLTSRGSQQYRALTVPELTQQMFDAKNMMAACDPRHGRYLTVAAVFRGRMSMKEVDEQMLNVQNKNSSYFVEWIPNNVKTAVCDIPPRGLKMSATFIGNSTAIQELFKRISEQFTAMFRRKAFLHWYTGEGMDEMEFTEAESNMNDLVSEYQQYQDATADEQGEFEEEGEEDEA

Molecule: hTTLL11 I594W mutant (from UniProt Q8NHH1 1-710) (enzyme)
- percent reduction of the fluorescence signal intensity [1]: 80%

Molecule: hTTLL11 R601E mutant (from UniProt Q8NHH1 1-710) (enzyme)
- percent reduction of the fluorescence signal intensity [1]: 60%

B1: human TTLL11 (hTTLL11), full-length (enzyme)
chain: MRRGSSESELAARWEAEAVAAAKAAAKAEAEATAETVAEQVRVDAGAAGEPECKAGEEQPKVLAPAPAQPSAAEEGNTQVLQRPPPTLPPSKPKPVQGLCPHGKPRDKGRSCKRSSGHGSGENGSQRPVTVDSSKARTSLDALKISIRQLKWKEFPFGRRLPCDIYWHGVSFHDNDIFSGQVNKFPGMTEMVRKITLSRAVRTMQNLFPEEYNFYPRSWILPDEFQLFVAQVQMVKDDDPSWKPTFIVKPDGGCQGDGIYLIKDPSDIRLAGTLQSRPAVVQEYICKPLLIDKLKFDIRLYVLLKSLDPLEIYIAKDGLSRFCTEPYQEPTPKNLHRIFMHLTNYSLNIHSGNFIHSDSASTGSKRTFSSILCRLSSKGVDIKKVWSDIISVVIKTVIALTPELKVFYQSDIPTGRPGPTCFQILGFDILLMKNLKPILLEVNANPSMRIEHEHELSPGVFENVPSLVDEEVKVAVIRDTLRLMDPLKKKRENQSQQLEKPFAGKEDALDGELTSAPDCNANPEAHLPSICLKQVFPKYAKQFNYLRLVDRMANLFIRFLGIKGTMKLGPTGFRTFIRSCKLSSSSLSMAAVDILYIDITRRWNSMTLDQRDSGMCLQAFVEAFFFLAQRKFKMLPLHEQVASLIDLCEYHLSLLDEKRLVCGRGVPSGGRPPHRGPPQEPSPSAQPAGDNPPPRTSCANKLSHPRHTLS
modifications: Janelia Fluor 549-HALO probe on the HALO tag (TIRF assay)
- percent lower fluorescence signal than on intact MTs [2]: 50%
